Laboratory results reported in US11827699 (dated 2023).
Changes are numbered by the printed parent chain.

How the values were obtained:
Assay in all cases: SPR
human FcγRIIa R131 = target: T1, human FcγRIIa R131 (human, UniProt P12318)
T1 chain: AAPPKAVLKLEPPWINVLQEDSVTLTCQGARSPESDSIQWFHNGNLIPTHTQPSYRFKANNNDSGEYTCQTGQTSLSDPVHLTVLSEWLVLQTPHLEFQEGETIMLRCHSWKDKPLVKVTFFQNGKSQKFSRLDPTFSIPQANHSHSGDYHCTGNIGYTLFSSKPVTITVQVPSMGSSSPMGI

human FcγRIIb = target: T2, human FcγRIIb (human, UniProt P31994)
T2 chain: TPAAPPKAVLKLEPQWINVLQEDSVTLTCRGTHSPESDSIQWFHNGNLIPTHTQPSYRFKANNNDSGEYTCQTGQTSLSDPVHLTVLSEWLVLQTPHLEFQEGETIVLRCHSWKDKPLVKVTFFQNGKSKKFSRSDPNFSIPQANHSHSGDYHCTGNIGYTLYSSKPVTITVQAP

human FcγRIIIa V158 = human FcγRIIIa V158 (human, UniProt P08637)
Sequence of human FcγRIIIa V158 (P08637 17-208 F176V): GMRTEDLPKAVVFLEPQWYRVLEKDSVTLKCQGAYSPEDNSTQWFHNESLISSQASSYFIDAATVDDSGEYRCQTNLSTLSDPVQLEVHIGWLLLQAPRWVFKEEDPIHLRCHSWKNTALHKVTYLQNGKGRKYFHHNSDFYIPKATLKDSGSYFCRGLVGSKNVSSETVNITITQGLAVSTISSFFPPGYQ

human FcγRIIa H131 = target: T3, human FcγRIIa H131 (human, UniProt P12318)
T3 chain: T1 chain with R132H

human FcγRIa = target: T4, human FcγRIa (human, UniProt P12314)
T4 chain: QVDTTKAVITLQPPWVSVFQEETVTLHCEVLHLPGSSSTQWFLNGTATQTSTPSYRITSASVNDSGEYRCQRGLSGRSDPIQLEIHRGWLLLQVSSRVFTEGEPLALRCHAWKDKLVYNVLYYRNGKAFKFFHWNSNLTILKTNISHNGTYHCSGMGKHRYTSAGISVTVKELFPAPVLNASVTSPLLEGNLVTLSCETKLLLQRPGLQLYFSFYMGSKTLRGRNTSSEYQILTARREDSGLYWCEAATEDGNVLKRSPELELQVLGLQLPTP

B1: IL6R-BP481 (antibody)
chain 1: QVQLQESGPGLVKPSETLSLTCAVSGHSISHDHAWSWVRQPPGEGLEWIGFISYSGITNYNPSLQGRVTISRDNSKNTLYLQMNSLRAEDTAVYYCARSLARTTAMDYWGEGTLVTVSSASTKGPSVFPLAPSSKSTSGGTAALGCLVKDYFPEPVTVSWNSGALTSGVHTFPAVLQSSGLYSLSSVVTVPSSSLGTQTYICNVNHKPSNTKVDKKVEPKSCDKTHTCPPCPAPDLLGDDSVFLFPPKPKDTLMISRTPEVTCVVIDVAEEDGEVKFNWYVDGVEVHNAKTKPREEQYNSTYRVVSVLTVLHQDWLNGKEYKCKVSNKALPAPIEKTISKAKGQPREPQVYTLPPSRDELTKNQVSLTCLVKGFYPSDIAVEWESNGQPENNYKTTPPVLDSDGSFFLYSKLTVDKSRWQQGNVFSCSVMHEALHNHYTQESLSLSP
chain 2: not shown
Kd (human FcγRIIa R131): 400 nM | Kd (human FcγRIIb): 19 nM | Kd (human FcγRIIIa V158): 24000 nM | Kd (human FcγRIIa H131): 6800 nM | Kd (human FcγRIa): 1 nM

B2: IL6R-BP494 (antibody)
chain 1: B1 chain 1 with D235E, I266V, Y298D, A332R
chain 2: not shown
Kd (human FcγRIIa R131): 250 nM | Kd (human FcγRIIb): 6.6 nM | Kd (human FcγRIIIa V158): 40000 nM | Kd (human FcγRIIa H131): 5400 nM | Kd (human FcγRIa): 3.9 nM

B3: IL6R-BP488 (antibody)
chain 1: B1 chain 1 with Y298D, A332R
chain 2: not shown
Kd (human FcγRIIa R131): 74 nM | Kd (human FcγRIIb): 1.9 nM | Kd (human FcγRIIIa V158): 20000 nM | Kd (human FcγRIIa H131): 1600 nM | Kd (human FcγRIa): 2.2 nM

B4: IL6R-BP484 (antibody)
chain 1: B1 chain 1 with I266V, E271D
chain 2: not shown
Kd (human FcγRIIa R131): 780 nM | Kd (human FcγRIIb): 46 nM | Kd (human FcγRIIIa V158): 25000 nM | Kd (human FcγRIIa H131): 11000 nM | Kd (human FcγRIa): 0.82 nM

B5: IL6R-BP262 (antibody)
chain 1: B1 chain 1 with D235E, I266V, A269S
chain 2: not shown
Kd (human FcγRIIa R131): 2000 nM | Kd (human FcγRIIb): 120 nM | Kd (human FcγRIIIa V158): 56000 nM | Kd (human FcγRIIa H131): 45000 nM | Kd (human FcγRIa): 10 nM

B6: IL6R-BP491 (antibody)
chain 1: B1 chain 1 with D235E, Y298D, A332R
chain 2: not shown
Kd (human FcγRIIa R131): 120 nM | Kd (human FcγRIIb): 3 nM | Kd (human FcγRIIIa V158): 21000 nM | Kd (human FcγRIIa H131): 2200 nM | Kd (human FcγRIa): 5.3 nM

B7: IL6R-BP498 (antibody)
chain 1: B1 chain 1 with A332R, P398L
chain 2: not shown
Kd (human FcγRIIa R131): 51 nM | Kd (human FcγRIIb): 1.7 nM | Kd (human FcγRIIIa V158): 10000 nM | Kd (human FcγRIIa H131): 930 nM | Kd (human FcγRIa): 1.3 nM

B8: IL6R-BP502 (antibody)
chain 1: B1 chain 1 with Y298D, A329G, A332R
chain 2: not shown
Kd (human FcγRIIa R131): 110 nM | Kd (human FcγRIIb): 3.7 nM | Kd (human FcγRIIIa V158): 24000 nM | Kd (human FcγRIIa H131): 1300 nM | Kd (human FcγRIa): 2.1 nM

B9: IL6R-BP496 (antibody)
chain 1: B1 chain 1 with Y298D
chain 2: not shown
Kd (human FcγRIIa R131): 470 nM | Kd (human FcγRIIb): 18 nM | Kd (human FcγRIIIa V158): 30000 nM | Kd (human FcγRIIa H131): 3700 nM | Kd (human FcγRIa): 1.2 nM

B10: IL6R-BP503 (antibody)
chain 1: B1 chain 1 with Y298D, A329G, A332R, P398M
chain 2: not shown
Kd (human FcγRIIa R131): 57 nM | Kd (human FcγRIIb): 1.7 nM | Kd (human FcγRIIIa V158): 21000 nM | Kd (human FcγRIIa H131): 860 nM | Kd (human FcγRIa): 1.2 nM

B11: IL6R-BP479 (antibody)
chain 1: B1 chain 1 with V268L
chain 2: not shown
Kd (human FcγRIIa R131): 900 nM | Kd (human FcγRIIb): 56 nM | Kd (human FcγRIIIa V158): 40000 nM | Kd (human FcγRIIa H131): 15000 nM | Kd (human FcγRIa): 5.3 nM

B12: IL6R-BP511 (antibody)
chain 1: B1 chain 1 with D235E, E274P, Y298D, A332R
chain 2: not shown
Kd (human FcγRIIa R131): 180 nM | Kd (human FcγRIIb): 3.5 nM | Kd (human FcγRIIIa V158): 71000 nM | Kd (human FcγRIIa H131): 4300 nM | Kd (human FcγRIa): 6 nM

B13: IL6R-BP269 (antibody)
chain 1: B1 chain 1 with D235E, I266V, A269S, Y298D
chain 2: not shown
Kd (human FcγRIIa R131): 2200 nM | Kd (human FcγRIIb): 110 nM | Kd (human FcγRIIIa V158): 140000 nM | Kd (human FcγRIIa H131): 72000 nM | Kd (human FcγRIa): 14 nM
